From patent US20220090139A1

Biological target: integrin molecules on human cells (human)
Assay: cell-based or functional assay

B1: RGD-Hoc, P18056 1-376 (protein)
chain: CDCRGDCFCSAMTFTVDITPKTPTGVIDETKQFTATPSGQTGGGTITYAWSVDNVPQDGAEATFSYVLKGPAGQKTIKVVATNTLSEGGPETAEATTTITVKNKTQTTTLAVTPASPAAGVIGTPVQFTAALASQPDGASATYQWYVDDSQVGGETNSTFSYTPTTSGVKRIKCVAQVTATDYDALSVTSNEVSLTVNKKTMNPQVTLTPPSINVQQDASATFTANVTGAPEEAQITYSWKKDSSPVEGSTNVYTVDTSSVGSQTIEVTATVTAADYNPVTVTKTGNVTVTAKVAPEPEGELPYVHPLPHRSSAYIWCGWWVMDEIQKMTEEGKDWKTDDPDSKYYLHRYTLQKMMKDYPEVDVQESRNGYIIHKTALETGIIYTYPKLAAALEHHHHHH
- luciferase activity: 5 fold
